Measured values reported in the supplement of paper PMC10724198.
± gives the standard deviation of the averaged measurements.

Tested on: Saccharomyces cerevisiae
Experiment: protein stability index of tFT-peptide fusion (C-terminal peptide) (PSI (0-1 scale)); higher = more stable (slower turnover)
Conditions: genetic background: wild type; temperature: 30 C
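Also: PSI is a weighted mean of sequencing reads over stability bins, variants kept only with over 10 reads, mCherry proximal and sfGFP distal, peptide attached via GGGS linker.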

Row | Sequence | protein stability index
1 | PDVFLLHASPPG | 0.66 ± 0.098
2 | PEKRDIQSGIVD | 0.696 ± 0.024
3 | PFALADSDGDSK | 0.683 ± 0.059
4 | PFFLSFPPSALL | 0.741 ± 0.021
5 | PFFRAPTRPSVF | 0.716 ± 0.043
6 | PFLSLPLSPPPP | 0.71 ± 0.092
7 | PFPLPPPPSPTP | 0.699 ± 0.03
8 | PFPPLPLPLPLP | 0.7123 ± 0.00013
9 | PFPRPWRPLPTS | 0.7 ± 0.044
10 | PFPSPSPLARLP | 0.704 ± 0.054
11 | PFSLSLPPPPLP | 0.73 ± 0.026
12 | PFSPLPGPPPPP | 0.733 ± 0.04
13 | PFSPPPSTQPSY | 0.754 ± 0.15
14 | PFSSPPPPCRSC | 0.718 ± 0.023
15 | PFSSVFNPGVLS | 0.644 ± 0.017
16 | PFSVCVSSSLCG | 0.665 ± 0.0076
17 | PFTHRTYREGRT | 0.676 ± 0.081
18 | PFVIFHSCFSLV | 0.543 ± 0.011
19 | PGALLPALPPPP | 0.71 ± 0.016
20 | PGFTLLDFCLYH | 0.725 ± 0.0091
21 | PGFVGPWAGGGA | 0.735 ± 0.12
22 | PGGAGKAYGSRL | 0.707 ± 0.012
23 | PGGLVVGAGRED | 0.709 ± 0.033
24 | PGIAVPTGTSYV | 0.617 ± 0.06
25 | PGIVTGCGNTFV | 0.708 ± 0.022
26 | PGNKHYRARNGA | 0.678 ± 0.013

Row | Sequence | protein stability index
27 | PGPKAAHSKRDR | 0.662 ± 0.058
28 | PGPPFPMANTPF | 0.646 ± 0.048
29 | PGRVAGGCGVLG | 0.64419 ± 0.00049
30 | PGRYTDCCLPNR | 0.682 ± 0.022
31 | PGSLRGATRPNQ | 0.739 ± 0.17
32 | PGTVQVGFDIQV | 0.717 ± 0.018
33 | PGWHLDPITALP | 0.712 ± 0.027
34 | PHAEESNSTLSP | 0.765 ± 0.12
35 | PHLAPPPGPLHP | 0.7233 ± 0.0024
36 | PHLEVPARPRGT | 0.7148 ± 0.0042
37 | PHLPSPRPRPPP | 0.722 ± 0.012
38 | PHMRSPTPLLRP | 0.697 ± 0.077
39 | PHNPTFSPPTCP | 0.751 ± 0.027
40 | PHPAPRRPPLPP | 0.687 ± 0.05
41 | PHPRHQPNLRPT | 0.664 ± 0.024
42 | PHPRPPPLSFAP | 0.681 ± 0.035
43 | PHPSPRGTPCPT | 0.646 ± 0.021
44 | PHRPSPPIPLSV | 0.662 ± 0.043
45 | PHRSRPPPTPPV | 0.625 ± 0.061
46 | PHSSSLSPCPSL | 0.687 ± 0.013
47 | PHTHPPASLPPV | 0.638 ± 0.033
48 | PHWGKRINEAHT | 0.6851 ± 0.0029
49 | PHYPQSHPADPV | 0.668 ± 0.016
50 | PIATTSVDAGRS | 0.634 ± 0.019
51 | PICCPLILTRSL | 0.706 ± 0.019
52 | PIHCTVMGATTC | 0.657 ± 0.073

Row | Sequence | protein stability index
53 | PIPPLPSSRLGV | 0.602 ± 0.037
54 | PIPRAASPLLPM | 0.588 ± 0.007
55 | PISAGGGVVWVE | 0.6491 ± 0.0047
56 | PITSPPQVLLQH | 0.686 ± 0.033
57 | PKTKKEKQKKKV | 0.704 ± 0.034
58 | PLCVFHYSSDDY | 0.705 ± 0.054
59 | PLESRPHNAHQR | 0.663 ± 0.09
60 | PLFAPLTPPLPP | 0.734 ± 0.033
61 | PLFLHSAHVSPI | 0.712 ± 0.071
62 | PLFPPASVVVLY | 0.663 ± 0.036
63 | PLFSASLFSLSL | 0.747 ± 0.068
64 | PLFSPPFLPFSL | 0.711 ± 0.028
65 | PLGQVLRVSSDF | 0.75473 ± 0.00037
66 | PLGVGLVDGEAP | 0.715 ± 0.072
67 | PLHPPPPPPPHP | 0.717 ± 0.064
68 | PLHSLPSRTPPS | 0.7088 ± 0.006
69 | PLHSTPRPPAPG | 0.706 ± 0.098
70 | PLIDRKIKKAIQ | 0.705 ± 0.069
71 | PLISYIEGGPTS | 0.674 ± 0.02
72 | PLLAQSALFVIA | 0.5904 ± 0.0055
73 | PLLHPTGFMGFP | 0.74 ± 0.028
74 | PLLLLLPPPPSP | 0.674 ± 0.033
75 | PLLLPPLPRTPF | 0.622 ± 0.0066
76 | PLLPLSFRIPPF | 0.702 ± 0.014
77 | PLLPPALCPFPP | 0.685 ± 0.029
78 | PLLPPPGALFLL | 0.718 ± 0.057

Row | Sequence | protein stability index
79 | PLLPSFPPPPAP | 0.51 ± 0.014
80 | PLLPSGIPLFLS | 0.574 ± 0.016
81 | PLLRLVPVPSVI | 0.5537 ± 0.0025
82 | PLLSAFPPRPFP | 0.682 ± 0.12
83 | PLLSSPAHPLPP | 0.687 ± 0.053
84 | PLMKHSHSSLPF | 0.7016 ± 0.0043
85 | PLPEQIEATTAS | 0.6921 ± 0.00086
86 | PLPFPPPLPSHR | 0.767 ± 0.11
87 | PLPHPPRPLPPH | 0.717 ± 0.015
88 | PLPLLSLPRFPL | 0.753 ± 0.1
89 | PLPLPFGPPSLP | 0.753 ± 0.15
90 | PLPLPLPQTLPP | 0.6958 ± 0.0067
91 | PLPLPPPFILPT | 0.646 ± 0.052
92 | PLPPHAPPNSAP | 0.656 ± 0.079
93 | PLPPIPPSTPST | 0.726 ± 0.017
94 | PLPPLPPTAPPP | 0.686 ± 0.015
95 | PLPPLSSPRPPP | 0.711 ± 0.071
96 | PLPPPGPPRLSR | 0.723 ± 0.0075
97 | PLPPPHSPPPSA | 0.677 ± 0.011
98 | PLPPPPPLPFHL | 0.79 ± 0.095
99 | PLPPPPPPPPPT | 0.681 ± 0.023
100 | PLPPPPPPPSPS | 0.835 ± 0.11
101 | PLPPPPRPPLRP | 0.6941 ± 0.0052
102 | PLPPPSPSTPPP | 0.796 ± 0.065
103 | PLPPPVFLLFPL | 0.667 ± 0.051
104 | PLPPRPCCLPRP | 0.644 ± 0.098

Row | Sequence | protein stability index
105 | PLPRAPSPPPPP | 0.694 ± 0.023
106 | PLPRFLTLTLSQ | 0.652 ± 0.023
107 | PLPRLPSSLSRP | 0.697 ± 0.023
108 | PLPSARPPPLPS | 0.685 ± 0.011
109 | PLPSLPPPPPPL | 0.661 ± 0.076
110 | PLPSPDLPLTHH | 0.679 ± 0.025
111 | PLPSPRLRFLVP | 0.653 ± 0.036
112 | PLPSVPESPAPP | 0.693 ± 0.045
113 | PLRAPPHPPPVP | 0.623 ± 0.048
114 | PLRPPCPLPPRT | 0.6031 ± 0.0056
115 | PLRPQALDPFLY | 0.6835 ± 0.0028
116 | PLRPSSPLPPPL | 0.71 ± 0.021
117 | PLSNAPRPSQVA | 0.736 ± 0.056
118 | PLSPPHRLTAAL | 0.756 ± 0.19
119 | PLSPPPPPPPPL | 0.707 ± 0.018
120 | PLSPSCCLRRPL | 0.777 ± 0.24
121 | PLSPSLPNPCSL | 0.706 ± 0.0079
122 | PLSPSPPPASLL | 0.702 ± 0.018
123 | PLSPTSPLPSPA | 0.6779 ± 0.0039
124 | PLSQLPAFSPVS | 0.687 ± 0.0095
125 | PLSTPPPLLLTP | 0.719 ± 0.12
126 | PLSYRRFTRLPR | 0.68 ± 0.066
127 | PLTEELCFSAWG | 0.734 ± 0.031
128 | PLTFSFPVRVCD | 0.537 ± 0.028
129 | PLTPPPALILFP | 0.693 ± 0.022
130 | PLTPSPRPPPPS | 0.615 ± 0.15

Row | Sequence | protein stability index
131 | PLTVPLPSPRLI | 0.645 ± 0.1
132 | PLVPRCFVPPVI | 0.657 ± 0.023
133 | PLWCLPSLPPPF | 0.797 ± 0.031
134 | PLWEYGCLFASS | 0.718 ± 0.03
135 | PLWLPPTPMQII | 0.62 ± 0.013
136 | PLYHPSESYNPA | 0.678 ± 0.016
137 | PLYSLVSPPYAT | 0.651 ± 0.019
138 | PMLSDVPTHSIS | 0.719 ± 0.039
139 | PMPPPHLLPSSS | 0.723 ± 0.024
140 | PMSPCPTRSINA | 0.702 ± 0.031
141 | PMVLLDTIQRHT | 0.721 ± 0.033
142 | PNHGEYRNGLYV | 0.715 ± 0.11
143 | PNLKKHFRADEP | 0.6832 ± 0.0036
144 | PNLSPPTPLSAD | 0.649 ± 0.018
145 | PPAAAPPSPPPL | 0.663 ± 0.0036
146 | PPAAPPPQPHLT | 0.696 ± 0.032
147 | PPAEPLRLHAHA | 0.709 ± 0.054
148 | PPALRSPCPSHP | 0.747 ± 0.14
149 | PPAPLAPPPAGC | 0.67 ± 0.038
150 | PPAPLPQSAPTR | 0.645 ± 0.038
151 | PPAPPLFVSSPG | 0.684 ± 0.048
152 | PPAPPPRLPSPP | 0.713 ± 0.098
153 | PPAPSPPPPPPP | 0.622 ± 0.055
154 | PPAPYPPFPLEL | 0.821 ± 0.078
155 | PPCLYPFPPPSR | 0.661 ± 0.017
156 | PPCPPPPPVLPT | 0.66722 ± 0.00014

Row | Sequence | protein stability index
157 | PPDAPPMPPPQH | 0.738 ± 0.083
158 | PPDYPAPPPPPL | 0.695 ± 0.034
159 | PPEPSYPPLPPR | 0.717 ± 0.011
160 | PPGPPPPPAPPL | 0.724 ± 0.062
161 | PPGVTPLSLCAC | 0.534 ± 0.0088
162 | PPHAPKPPPTAA | 0.588 ± 0.077
163 | PPHLSPPPPPLL | 0.6987 ± 0.0054
164 | PPHPFPPPPPPS | 0.665 ± 0.069
165 | PPHPHNPRPSTP | 0.6548 ± 0.0046
166 | PPHPPPLLPFSI | 0.764 ± 0.009
167 | PPIFPSPPPPAD | 0.61 ± 0.011
168 | PPILLAYITPPM | 0.656 ± 0.0076
169 | PPIRLPSPLLPH | 0.7123 ± 0.0056
170 | PPKPAQPPTPSP | 0.693 ± 0.075
171 | PPLAPPTPHPLS | 0.716 ± 0.029
172 | PPLEHPGIAGGR | 0.644 ± 0.1
173 | PPLFPPLAPLHR | 0.72 ± 0.032
174 | PPLFSSTNKNPR | 0.664 ± 0.0076
175 | PPLLAPPTPLPQ | 0.674 ± 0.051
176 | PPLLLRFLTIHL | 0.571 ± 0.027
177 | PPLLPLLCPHSL | 0.738 ± 0.016
178 | PPLLPTPRPPPP | 0.65 ± 0.037
179 | PPLLRSPPPLSP | 0.675 ± 0.022
180 | PPLNPHPPAPTP | 0.724 ± 0.032
181 | PPLPAPPPPFPP | 0.59 ± 0.022
182 | PPLPFARAPHCP | 0.732 ± 0.059

Row | Sequence | protein stability index
183 | PPLPHQPSHPIS | 0.672 ± 0.053
184 | PPLPLPPPHPPP | 0.503 ± 0.047
185 | PPLPPLPLPNPP | 0.676 ± 0.064
186 | PPLPPLPSPLPL | 0.674 ± 0.014
187 | PPLPPLRPIRSP | 0.702 ± 0.035
188 | PPLPPPLLPSSS | 0.711 ± 0.12
189 | PPLPPPLSLPPP | 0.657 ± 0.06
190 | PPLPPPPPPFPP | 0.5534 ± 0.0012
191 | PPLPPPSVPPPC | 0.716 ± 0.012
192 | PPLPPSLPGSSL | 0.642 ± 0.053
193 | PPLPPSPRLLPP | 0.635 ± 0.056
194 | PPLPRPSLPPLP | 0.676 ± 0.054
195 | PPLPSFILSPRA | 0.705 ± 0.027
196 | PPLPSGLHPTLT | 0.6932 ± 0.0052
197 | PPLPSTAPPSPL | 0.735 ± 0.0096
198 | PPLPTPPPPPDP | 0.662 ± 0.052
199 | PPLRFFPPVSSH | 0.667 ± 0.014
200 | PPLRPPPLHPPR | 0.705 ± 0.036
201 | PPLRPPPPPPPP | 0.668 ± 0.072
202 | PPLRPRCSPAPR | 0.706 ± 0.01
